Laboratory results published in the DeepSol protein solubility set.

assay: soluble on expression in E. coli; label from the status in PepcDB or PDB records

| Sequence | soluble on expression in E. coli |
| --- | --- |
| MNQEKIADLKNWMHQEKIDFTYISDPGHIAYFSGYESEPHERVLALFIAADDQSFLFTPALEVEDAEKSSWTYPVYGYLDSENPWEKIAALLNKRTQGTPRFALEKQALSLARFDQLKTYFPASDFSHDVTPLIEKLQLIKTEPEIQRLLEAGSWADVAFEIGFKAIQAGVAEQEIVAEIEYQLKRQGIRSMSFDTLVLTGKNGASPHGVPGETKIEPHDLVLFDLGVVHNGYCSDATRTVSYLEPSDFQKEIYGIVLEAQLAATEAVKPGVTAGELDDIARGVITKAGYGEYFNHRLGHGIGTTVHEYPSLVHGNDLVIEEGMCFSIEPGIYIPGKVGVRIEDCLHVTKTGSEPFTKTTKELQIIQ | not soluble |
| GSHMAGLPRRIIKETQRLLAEPVPGIKAEPDESNARYFHVVIAGPQDSPFEGGTFKLELFLPEEYPMAAPKVRFMTKIYHPNVDKLGRICLDILKDKWSPALQIRTVLLSIQALLSAPNPDDPLANDVAEQWKTNEAQAIETARAWTRLYAMNNI | soluble |
| MDIGRAVRFLRKRQGWTQQQLADFSHTSKSNISNLENGNQGYSPAILEYLAKAFNCSVSQIFLLAENMDNEGNLLKDWQHMPIDVLFIQLPQEVQCQLKHLIFTLIDTKK | not soluble |
| MKNNKIYLLGACLLCAVTTFAQNVSLQPPPQQLIVQNKTIDLPAVYQLNGGEEANPHAVKVLKELLSGKQSSKKGMLISIGEKGDKSVRKYSRQIPDHKEGYYLSVNEKEIVLAGNDERGTYYALQTFAQLLKDGKLPEVEIKDYPSVRYRGVVEGFYGTPWSHQARLSQLKFYGKNKMNTYIYGPKDDPYHSAPNWRLPYPDKEAAQLQELVAVANENEVDFVWAIHPGQDIKWNKEDRDLLLAKFEKMYQLGVRSFAVFFDNISGEGTNPQKQAELLNYIDEKFAQVKPDINQLVMCPTEYNKSWSNPNGNYLTTLGDKLNPSIQIMWTGDRVISDITRDGISWINERIKRPAYIWWNFPVSDYVRDHLLLGPVYGNDTTIAKEMSGFVTNPMEHAESSKIAIYSVASYAWNPAKYDTWQTWKDAIRTILPSAAEELECFAMHNSDLGPNGHGYRREESMDIQPAAERFLKAFKEGKNYDKADFETLQYTFERMKESADILLMNTENKPLIVEITPWVHQFKLTAEMGEEVLKMVEGRNESYFLRKYNHVKALQQQMFYIDQTSNQNPYQPGVKTATRVIKPLIDRTFATVVKFFNQKFNAHLDATTDYMPHKMISNVEQIKNLPLQVKANRVLISPANEVVKWAAGNSVEIELDAIYPGENIQINFGKDAPCTWGRLEISTDGKEWKTVDLKQKESRLSAGLQKAPVKFVRFTNVSDEEQQVYLRQFVLTIEKK | soluble |
| SYTEVRELVNFVCRYLFGHIPRRPVGIFGAELGNYLVSHFSSTWDVHHPKNGEMKRMINTTTSLCFASSAEEAGVPPSDVLRLLPTNMIIFANPGHVFVRLSENGIETPIWIGDVNCDENYQSVPEYVVRTAAIRAEPCSNLGAAGKSVLVGKKPLLTNDKAALEMVNTMYSPLAREKCDDINANLSHLREMYPFRFVYKPSSAQTFSGVEFSQTRFGSSKSRPDLQTMDVIKYLSSQQVSSSSSPSFTYSSINDQMRYSPRF | soluble |
| MAGGPPKALPSTGPQSLRDMPHPLAGSSSEEAVGGDSTPSPDLLMARSFGDKDLILPNGGTPAGTASPASSSSLLNRLQLDDDIDGEARDLFVTVDDPKKHVCTMETYITYRITTKSTRVEFDLPEYSVRRRYQDFDWLRNKLEESQPTHLIPPLPEKFVVKGVVDRFSEEFVETRRKALDKFLKRITDHPVLSFNEHFNVFLTAKDLNAYKKQGIALLSRVGESVKHVTGGYKLRSRPLEFAAISDYLDTFALKLGTIDRIAQRIIKEEIEYLVELREYGPVYSTWSALEGELAEPLEGVSACIGNCSTALEELTDDITEEFLPVLREYVLYSDSMKGVLKKRDQVQAEYEAKLEAVALRKEERPKVPADVEKCQDRMECFNADLKADMERWQSNKRHDFRQLLVGLADKNIQYYEKCLMAWESIIPLLQEKQETK | soluble |
| MAHHHHHHMCSVPISCSSTHTHTPHSLIVMSAPKKVALVTGANRGIGFATARRLGELGFKVLLGARDAKRGEEAVDTLRNDKLDVDLLLMTPTEHTSVEAAVQKVEADYKRLDVLINNAALMDFDNKVFPLNIQRMRDEFEINFFATVDITNSFLPLMLRSSEAPRLVFVSTPLGTHETVDRPQNKYAHPNLTAYKCTKSAVNMYAHNLAKYLENYAEEAGGSAASAKVNCCYPGYVQTDMCFNSTEAHFTPYEGAETSVWLATLPADGPTGGFYHRAQKLPW | soluble |
| MAQLYFYYSAMNAGKSTALLQSSYNYQERGMRTVVYTAEIDDRFGAGKVSSRIGLSSPAKLFNQNTSLFEEIRAESARQTIHCVLVDESQFLTRQQVYQLSEVVDKLDIPVLCYGLRTDFRGELFVGSQYLLAWSDKLVELKTICFCGRKASMVLRLDQDGRPYNEGEQVVIGGNERYVSVCRKHYKDALEEGSLTAIQERHRHILEHHHHHH | soluble |
| YNSGKLEEFVQGNLERECMEEKCSFEEAREVFENTERTTEFWKQYEEEEEE | soluble |
| MNLNIETSRRIELIDITSEVKEEVRISGVREGVCIISTRHTTAGIIVNENENGLREDILNMLERLVPQGAGYRHDRIDNNADSHLKAILLGSSEALPIVKGELELGTWQSIFFAEMDGPRNRAVNLTILKTELEHHHHHH | soluble |
| MSLENVTMGFWYVSPRRGPHRTTRQISAGTWEEVRPNYTTPVADAMDRLMKTTPEDIAGRLLLLHGPPGTGKTSALRTLARSWRDWCQVDCVLDPERLFSDVGYLMDIAIGEEDGTGKGRWRLLLLEDCDELIRGEAKHTAGQALSRLLNLTDGLLGQGRNVLVGVTTNEDLERLHPAVVRPGRCLARIEVGPLTRREAVNWLGTEEGVGREGATLAELYALRRGTSPTSLPEPREGAEGHHHHHH | soluble |
| MASEVQAERADVVIVGAGHGGAQAAIALRQNGFEGRVLVIGREPEIPYERPPLSKEYLAREKTFERICIRPAQFWEDKAVEMKLGAEVVSLDPAAHTVKLGDGSAIEYGKLIWATGGDPRRLSCVGADLAGVHAVRTKEDADRLMAELDAGAKNAVVIGGGYIGLEAAAVLTKFGVNVTLLEALPRVLARVAGEALSEFYQAEHRAHGVDLRTGAAMDCIEGDGTKVTGVRMQDGSVIPADIVIVGIGIVPCVGALISAGASGGNGVDVDEFCRTSLTDVYAIGDCAAHANDFADGAVIRLESVQNANDMATAAAKDICGAPVPYKATPWFWSNQYDLKLQTVGLSTGHDNAVLRGDPATRSFSVVYLKGGKVVALDCVNMVKDYVQGKKLVEARAQIAPEQLADAGVPLKEMLA | soluble |
| MSLKAPVDFEQEVAPLLSQRCVSCHSPNIKKGELSLAGPEDLLANGYVVPGDPAGSYLLEVVSPAGDDPAAMPKLGDALAEPEVALLRRWIEQGAVWPDGFVIREASKADRSWWSLQPLADIHPPEVAAAPAAWRQNPIDRFVWAKLSEANLKPNSPADRRTLIRRATFDLTGLPPTAEEIDTFVASDSPDAYPQLIDRMLASPRYGERWGRHWLDVIRFGESRGFERNQIITNLWPFRDYVIRSINEDKPFDQFIREHLAGDVIAPNTPQVEVGSAFLVAGPYDDVGNEGHHHHHH | soluble |
| MTLHKPTQAVPCRAPKVGRLIYTAGGYFRQSLSYLEAYNPSNGSWLRLADLQVPRSGLAGCVVGGLLYAVGGRNNSPDGNTDSSALDCYNPMTNQWSPCASMSVPRNRIGVGVIDGHIYAVGGSHGCIHHSSVERYEPERDEWHLVAPMLTRRIGVGVAVLNRLLYAVGGFDGTNRLNSAECYYPERNEWRMITPMNTIRSGAGVCVLHNCIYAAGGYDGQDQLNSVERYDVETETWTFVAPMRHHRSALGITVHQGKIYVLGGYDGHTFLDSVECYDPDSDTWSEVTRMTSGRSGVGVAVTMEPCRKQIDQQNCTCY | soluble |
| MPDYDLITILGPTASGKTPFAAALAHELNTEIISADSRQIYRGMDLGTGKDLADYTVDGHPIPYHLIDIADPGYKYNVFEYQRDFLISYESIKQKGCLPVLCGGTGMYLESVLKGYKLMPVPENPELRARLANHSLEELTEILKQYKTLHNSTDVDTVKRAIRAIEIEEYYAVHPVPEREFPKLNSLIIGVDIDRELRREKITRRLKQRLDEGMVDEVRRLTEQGISPDDLIYYGLEYKFLTLYVIGKLTYEEMFTELETAIHQFAKRQMTWFRGMERRGFTIHWVSAELPMEEKIAFVIEKLRGNLEHHHHHH | soluble |
| MNELINGNAIKMTSIEIAELVESRHSNVKVSIDRLVKRGVIKPPALQHTNIINDLGVITGKRDFYVFEGEKGKRDSIIVVAQLSPEFTARLVDRWRELEEAAVNIPKTLPEALRLAADLAEQKMQLENQLAIAAPKVEFADRVGEASGILIGNFAKVVGIGPNKLFAWMRDHKILIASGARRNVPMQEYMERGYFTVKETAVNTNHGIQISFTTKITGRGQQWLTRKLLDNGMLKVTGEAA | not soluble |
| MVFYFKARPDAGDYTIFMGLDKFENEELIKYGFPEDVWFHVDKMSSAHVYLRLHRGQSFDDISEGVLEDCAQLVKANSIQGNKVNNVDVVYTPWSNLKKTASMDVGQVGFHNSKMVRTIRVEKRVNEIVNRLNKTKVERTPDLRAEREAVNAAERAERKQHLREKKKREEIDRLEKERQSEMRSYKGLMVTDKMTSNKDIASSNKSLQELEDDFM | soluble |
| MGSDKIHHHHHHMLWFKNLMIYRLSQDSVLSKDNVLSTDEMEKRLSAFAFTPCGSQDMMKTGWVSPMGSHSDALTHVVNGQIVICVRKEEKILPSPVIKQTLQAKIERLEAEQHRKLKKTEKDSLKDEVLHSLLPRAFSRLSQVWLWIDTVNGLIMVDAASAKKAEDTLALLRKTLGSLPVVPLTMENPIELTLTEWVRSGEPAAGFALQDEAELKAILEDGGVIRCKKQDLVCDEIAVHIEAGKLVTKLALDWQERIQLILSDDGSVKRLKFSDTLREQNDDIDREDFAQRFDADFILMTSELAALIANLIEALGGEAQR | not soluble |
| MRRLLTLWVLGLGALAQVPVGQVATRDVHALLWLPDGRLLFGHHDGLQVSEDEGRTWRDLVRKTGFDAMEHSFWRGDRLLAAEHWVLSESRDGGKTWRSFRPRGLPALDLHGYAASGGLHFALEATHGYFVSEDGGKTFKSTAPKGLPKAGMAAMVFQGKTLYVAPMGQGLYQSSDGGRTFTQVPTPEREIYALATGAGTLYLGGKTGLWQRTPAGWKRLWQGAVLALAAHPQEAGRLVFIDGQERVWKLP | soluble |
| MLGVFQKRCASTAPLIRPIQRVLVANRGEIAIRVQNTARKMGIETVAVFSDADRNSLFVKKADKAYHIGPPLAAESYLNMDKIINSALRSGAQAIHPGYGFLSENAGFAEKCAQAGLVFIGPPAQAIRDMGAKNVSKQIMEDAKVPVVKGFHGEDQSDANLKKKSAEIGYPVMLKAVYGGGGKGMRIAWNEAEFEEKLASARNEAKKSFGNDEMLVEKFVEKPRHVEVQVFGDHHGNYVHLWERDCSVQRRHQKIIEEAPAPNMEHDTRVKLGESAVRAAAAVGYVGAGTVEFIMDPRGEFYFMEMNTRLQVEHPVSEAITGTDLVEWQLRVAQGEKLPLKQSEIPLNGHAFECRVYAEDTRKGAFMPTAGRLNYVDFPEDARIDTGVVSGDEVSIHYDPMIAKVVVWGQDRAVAAAKLESALARTRISGLPTNIDFVRRVLAHPEFAAGNVYTDFIPDHQKELFAESETPAEIYVESAVAHALAALQKSDAGVFQNLSFFRMNLSPKYIFKIDGKDVSIRFDSDSRLTVSYDGNSYETLLNDIESTTDGSFKFTLEANGRRWSTVVKNLGNSLMVNGVGQNEYETPQIHETFDSLSGGAASHSAVAPMPGIIEKILVKPGEQVTTGQALVVMTAMKMEYIIRAPEDSTVEHIKCQAGKNVPKNAVLVQFA | not soluble |
| FNKKEVLDLTSPKNSIRSRNKLRRTLRNIQERIEDELNHEREALIQDFDYRLAVTYDQMLKDSNIPFSVKDVMAFIEKHTGVRFG | soluble |
